Reference: patent US20240425607A1 (published 2024)
Numbering of substitutions follows the chain as printed. Blank lines part the entries; values can stand above or below the binder they belong to.

How the values were obtained:
[1] = target: T1, human IL-18BP (recombinant, construct not stated) (UniProt O95998 31-194); assay: blocking ELISA
T1 chain: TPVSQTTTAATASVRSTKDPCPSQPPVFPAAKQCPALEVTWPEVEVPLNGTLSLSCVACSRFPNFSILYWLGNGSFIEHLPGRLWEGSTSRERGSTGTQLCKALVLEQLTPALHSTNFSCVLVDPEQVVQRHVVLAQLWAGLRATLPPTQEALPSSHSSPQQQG

Cyno IL18-IL18BP = Cyno IL18-IL18BP (cynomolgus monkey); assay: blocking ELISA

IC50 [1]: 0.278 µg/mL
B1: ADI-66692 (antibody, V domains shown)
VH: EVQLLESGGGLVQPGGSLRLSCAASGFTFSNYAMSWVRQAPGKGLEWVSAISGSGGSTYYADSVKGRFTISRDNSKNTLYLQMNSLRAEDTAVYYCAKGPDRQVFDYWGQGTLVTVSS
VL: DIQMTQSPSSVSASVGDRVTITCRASQGIDSWLAWYQQKPGKAPKLLIYAASSLQSGVPSRFSGSGSGTDFTLTISSLQPEDFATYYCQHAYSFPYTFGGGTKVEIK

IC50 [1]: 0.208 µg/mL
IC50 (Cyno IL18-IL18BP): 8.18 µg/mL
B2: ADI-66716 (antibody, V domains shown)
VH: QLQLQESGPGLVKPSETLSLTCTVSGGSISSSDYYWGWIRQPPGKGLEWIGSIYYSGSTYYNPSLKSRVTISVDTSKNQFSLKLSSVTAADTAVYYCARGPHRQVFDYWGQGTLVTVSS
VL: B1 VL with D30S, H90Q, A91G, Y92S
